From the Human Domainome abundance scans (Beltran et al. 2025)
± gives the uncertainty stated by the source.

B1: Tumor protein p73, residues 487 to 549; numbered along this chain, O15350 (parent)
chain: YHADPSLVSFLTGLGCPNCIEYFTSQGLQSIYHLQNLTIEDLGALKIPEQYRMTIWRGLQDLK

Variants of: B1
Test: abundance fitness (aPCA) (normalised: wild type 0, dead -1); higher = more abundant; growth selection in yeast, the domain comes from the species named
Conditions: Homo sapiens

Variant	abundance fitness
YHADQSLVSFLTGLGCPNCIEYFTSQGLQSIYHLQNLTIEDLGALKIPEQYRMTIWRGLQDLK	-0.005 ± 0.055
YHADVSLVSFLTGLGCPNCIEYFTSQGLQSIYHLQNLTIEDLGALKIPEQYRMTIWRGLQDLK	0.159 ± 0.037
YHADRSLVSFLTGLGCPNCIEYFTSQGLQSIYHLQNLTIEDLGALKIPEQYRMTIWRGLQDLK	0.085 ± 0.033
YHADHSLVSFLTGLGCPNCIEYFTSQGLQSIYHLQNLTIEDLGALKIPEQYRMTIWRGLQDLK	0.003 ± 0.064
YHADNSLVSFLTGLGCPNCIEYFTSQGLQSIYHLQNLTIEDLGALKIPEQYRMTIWRGLQDLK	0.225 ± 0.084
YHADISLVSFLTGLGCPNCIEYFTSQGLQSIYHLQNLTIEDLGALKIPEQYRMTIWRGLQDLK	0.209 ± 0.057
YHADCSLVSFLTGLGCPNCIEYFTSQGLQSIYHLQNLTIEDLGALKIPEQYRMTIWRGLQDLK	0.167 ± 0.11
YHADGSLVSFLTGLGCPNCIEYFTSQGLQSIYHLQNLTIEDLGALKIPEQYRMTIWRGLQDLK	0.134 ± 0.038
YHADASLVSFLTGLGCPNCIEYFTSQGLQSIYHLQNLTIEDLGALKIPEQYRMTIWRGLQDLK	0.11 ± 0.063
YHADMSLVSFLTGLGCPNCIEYFTSQGLQSIYHLQNLTIEDLGALKIPEQYRMTIWRGLQDLK	0.334 ± 0.038
YHADLSLVSFLTGLGCPNCIEYFTSQGLQSIYHLQNLTIEDLGALKIPEQYRMTIWRGLQDLK	0.073 ± 0.035
YHAWPSLVSFLTGLGCPNCIEYFTSQGLQSIYHLQNLTIEDLGALKIPEQYRMTIWRGLQDLK	0.181 ± 0.18
YHANPSLVSFLTGLGCPNCIEYFTSQGLQSIYHLQNLTIEDLGALKIPEQYRMTIWRGLQDLK	-0.15 ± 0.092
YHADPFLVSFLTGLGCPNCIEYFTSQGLQSIYHLQNLTIEDLGALKIPEQYRMTIWRGLQDLK	-0.095 ± 0.072
YHADPHLVSFLTGLGCPNCIEYFTSQGLQSIYHLQNLTIEDLGALKIPEQYRMTIWRGLQDLK	-0.077 ± 0.089
YHADPMLVSFLTGLGCPNCIEYFTSQGLQSIYHLQNLTIEDLGALKIPEQYRMTIWRGLQDLK	-0.031 ± 0.06
YHADPNLVSFLTGLGCPNCIEYFTSQGLQSIYHLQNLTIEDLGALKIPEQYRMTIWRGLQDLK	-0.076 ± 0.21
YHADPGLVSFLTGLGCPNCIEYFTSQGLQSIYHLQNLTIEDLGALKIPEQYRMTIWRGLQDLK	0.136 ± 0.027
YHADPLLVSFLTGLGCPNCIEYFTSQGLQSIYHLQNLTIEDLGALKIPEQYRMTIWRGLQDLK	-0.15 ± 0.056
YHADPALVSFLTGLGCPNCIEYFTSQGLQSIYHLQNLTIEDLGALKIPEQYRMTIWRGLQDLK	0.041 ± 0.052
YHADPQLVSFLTGLGCPNCIEYFTSQGLQSIYHLQNLTIEDLGALKIPEQYRMTIWRGLQDLK	0.064 ± 0.066
YHADPKLVSFLTGLGCPNCIEYFTSQGLQSIYHLQNLTIEDLGALKIPEQYRMTIWRGLQDLK	-0.07 ± 0.066

Variant	abundance fitness
YHADPCLVSFLTGLGCPNCIEYFTSQGLQSIYHLQNLTIEDLGALKIPEQYRMTIWRGLQDLK	0.036 ± 0.067
YHADPELVSFLTGLGCPNCIEYFTSQGLQSIYHLQNLTIEDLGALKIPEQYRMTIWRGLQDLK	0.126 ± 0.048
YHADPDLVSFLTGLGCPNCIEYFTSQGLQSIYHLQNLTIEDLGALKIPEQYRMTIWRGLQDLK	0.017 ± 0.14
GHADPSLVSFLTGLGCPNCIEYFTSQGLQSIYHLQNLTIEDLGALKIPEQYRMTIWRGLQDLK	-0.285 ± 0.051
NHADPSLVSFLTGLGCPNCIEYFTSQGLQSIYHLQNLTIEDLGALKIPEQYRMTIWRGLQDLK	0.054 ± 0.13
VHADPSLVSFLTGLGCPNCIEYFTSQGLQSIYHLQNLTIEDLGALKIPEQYRMTIWRGLQDLK	0.173 ± 0.044
CHADPSLVSFLTGLGCPNCIEYFTSQGLQSIYHLQNLTIEDLGALKIPEQYRMTIWRGLQDLK	-0.172 ± 0.076
QHADPSLVSFLTGLGCPNCIEYFTSQGLQSIYHLQNLTIEDLGALKIPEQYRMTIWRGLQDLK	-0.195 ± 0.093
LHADPSLVSFLTGLGCPNCIEYFTSQGLQSIYHLQNLTIEDLGALKIPEQYRMTIWRGLQDLK	0.075 ± 0.059
DHADPSLVSFLTGLGCPNCIEYFTSQGLQSIYHLQNLTIEDLGALKIPEQYRMTIWRGLQDLK	0.23 ± 0.23
THADPSLVSFLTGLGCPNCIEYFTSQGLQSIYHLQNLTIEDLGALKIPEQYRMTIWRGLQDLK	0.109 ± 0.13
PHADPSLVSFLTGLGCPNCIEYFTSQGLQSIYHLQNLTIEDLGALKIPEQYRMTIWRGLQDLK	0.161 ± 0.14
KHADPSLVSFLTGLGCPNCIEYFTSQGLQSIYHLQNLTIEDLGALKIPEQYRMTIWRGLQDLK	-0.153 ± 0.073
RHADPSLVSFLTGLGCPNCIEYFTSQGLQSIYHLQNLTIEDLGALKIPEQYRMTIWRGLQDLK	-0.175 ± 0.054
SHADPSLVSFLTGLGCPNCIEYFTSQGLQSIYHLQNLTIEDLGALKIPEQYRMTIWRGLQDLK	0.078 ± 0.05
HHADPSLVSFLTGLGCPNCIEYFTSQGLQSIYHLQNLTIEDLGALKIPEQYRMTIWRGLQDLK	-0.075 ± 0.088
IHADPSLVSFLTGLGCPNCIEYFTSQGLQSIYHLQNLTIEDLGALKIPEQYRMTIWRGLQDLK	0.336 ± 0.16
AHADPSLVSFLTGLGCPNCIEYFTSQGLQSIYHLQNLTIEDLGALKIPEQYRMTIWRGLQDLK	0.003 ± 0.28
EHADPSLVSFLTGLGCPNCIEYFTSQGLQSIYHLQNLTIEDLGALKIPEQYRMTIWRGLQDLK	0.01 ± 0.063
MHADPSLVSFLTGLGCPNCIEYFTSQGLQSIYHLQNLTIEDLGALKIPEQYRMTIWRGLQDLK	0.18 ± 0.063
FHADPSLVSFLTGLGCPNCIEYFTSQGLQSIYHLQNLTIEDLGALKIPEQYRMTIWRGLQDLK	0.201 ± 0.078
